Laboratory results: patent US20160000891A1

Molecular target: PF-4 in cynomolgus plasma (cynomolgus)
Test: aligned sandwich ELISA, cynomolgus plasma

AUC Ratio (vs anti-HPF4): 1 | anti-HPF4 AUC mean: 2.79
Substance: monoclonal anti-HPF4 antibody (Abcam cat. no.: ab49735)
